The chains are these.
B1: ExbB (natural protein, Escherichia coli, UniProt P0ABU7 1-244, looked up)
chain: MGNNLMQTDLSVWGMYQHADIVVKCVMIGLILASVVTWAIFFSKSVEFFNQKRRLKREQQLLAEARSLNQANDIAADFGSKSLSLHLLNEAQNELELSEGSDDNEGIKERTSFRLERRVAAVGRQMGRGNGYLATIGAISPFVGLFGTVWGIMNSFIGIAQTQTTNLAVVAPGIAEALLATAIGLVAAIPAVVIYNVFARQIGGFKAMLGDVAAQVLLLQSRDLDLEASAAAHPVRVAQKLRAG
notes: ExbB, Escherichia coli, full length; inner membrane protein of the Ton system; residues about 10-234 resolved in the crystal; Forms hexamers and pentamers depending on pH, so copies is left open; also called ExbB hexamer; ExbB pentamer; source: E. coli BL21 (DE3) Gold, pET-21b, co-expressed with ExbD, purified from the membrane fraction in detergent (IMAC, SEC); not shown: His6, C-terminal, kept
B2: ExbD (natural protein, Escherichia coli, UniProt P0ABV2 1-141, looked up)
chain: MAMHLNENLDDNGEMHDINVTPFIDVMLVLLIIFMVAAPLATVDVKVNLPASTSTPQPRPEKPVYLSVKADNSMFIGNDPVTDETMITALNALTEGKKDTTIFFRADKTVDYETLMKVMDTLHQAGYLKIGLVGEETAKAK
notes: ExbD, Escherichia coli, full length, no tag; only the TM helix is modelled in the cryo-EM maps; The PDB entries hold only the TM helix (ExbDTM) of ExbD; also called ExbDTM (its TM helix as modelled); ExbD trimer; source: E. coli BL21 (DE3) Gold, pET-21b, co-expressed with ExbB-His6, co-purified in detergent (IMAC, SEC)

Data set [1] deals with the molecule itself. The data set is described as follows: cryo-EM structure; single particle, frozen-hydrated ExbBD complex in LMNG, 10 mM Na-citrate pH 5.4; reference-free 2D classification and 3D reconstruction of the pentameric complex at 7.1 Å, 5-fold symmetry enforced.
Data set [2] concerns the molecule itself. The data set is described as follows: negative-stain EM of 2D crystals; purified ExbBD complex (C8E4) reconstituted with E. coli total lipid extract by dialysis, 25 mM Na-citrate pH 5.4, 150 mM NaCl, 4°C; Fourier filtering of crystal patches.
Data set [3] deals with the molecule itself. The experiment in a line: crystal structure; ExbBD complex purified in C8E4 or C10E5; crystals grown at pH 9.0 (0.1 M glycine, 0.15 M CaCl2, ~40% PEG 350 MME), 20°C; space group P2_(1), 2.8 Å, molecular replacement.
Data set [4] concerns the molecule itself. The experiment in a line: cryo-EM structure; single particle, frozen-hydrated ExbBD complex in LMNG, 10 mM Tris-HCl pH 8.0; reference-free 2D classification and 3D reconstruction of the hexameric complex at 6.7 Å, no symmetry applied.
Data set [5] addresses B1. The data set is described as follows: cryo-EM structure; single particle, frozen-hydrated ExbBD complex in LMNG, 10 mM Na-citrate pH 5.4; reference-free 2D classification and 3D reconstruction of the pentameric complex at 7.1 Å, 5-fold symmetry enforced. The following applies: both partners purified.
Data set [6] deals with B1. The data set is described as follows: cryo-EM structure; single particle, frozen-hydrated ExbBD complex in LMNG, 10 mM Tris-HCl pH 8.0; reference-free 2D classification and 3D reconstruction of the hexameric complex at 6.7 Å, no symmetry applied. The following applies: both partners purified.

Turning to B1, the “ratio of pentamer to hexamer” value in data set [1] came to 3 pentamer per hexamer. In addition, the “stoichiometry N” value in data set [2] is 5 subunits; in data set [3] it was 6 subunits. The “ratio of hexamer to pentamer (printed as pentamer:hexamer)” value in data set [4] amounted to 3 hexamer per pentamer.
For B2, the “stoichiometry N” value in data set [5] was determined as 1 ExbD per ExbB pentamer; in data set [4], 3 subunits; in data set [6], 3 ExbD per ExbB hexamer.

The stoichiometry N is a count of units in the complex or per binding partner.
